Results on three molecules are retold here after US20200399353A1 (AGENCY FOR SCIENCE TECHNOLOGY AND RESEARCH, published 2020).

Experiment [1] deals with T1, cell surface Annexin A2 (ANXA2) on live cells (human, UniProt P07355 2-339, N-linked glycan (N-glycan-dependent epitope; its position is not shown by an experiment)).
T1 construct: Endogenous ANXA2 on live human cancer cell lines (IGROV1, MCF7 and others) and hESC; also called annexin 2
Put plainly: flow cytometry on live IGROV1 cells.

Experiment [2] has as its target T1, cell surface Annexin A2 (ANXA2) on live …. Put plainly: flow cytometry.

T1 sequence (P07355 2-339 limits assumed): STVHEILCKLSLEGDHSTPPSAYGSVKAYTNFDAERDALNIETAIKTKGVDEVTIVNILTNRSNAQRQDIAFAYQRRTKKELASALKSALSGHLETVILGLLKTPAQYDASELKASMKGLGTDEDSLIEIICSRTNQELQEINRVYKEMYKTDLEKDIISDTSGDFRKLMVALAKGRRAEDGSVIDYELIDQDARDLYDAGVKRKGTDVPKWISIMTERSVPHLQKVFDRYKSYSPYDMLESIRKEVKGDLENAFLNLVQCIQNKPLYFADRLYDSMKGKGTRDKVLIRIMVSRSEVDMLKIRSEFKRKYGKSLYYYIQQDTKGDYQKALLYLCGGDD

B1: mAb 2448 (antibody, V domains shown)
VH: VQLQESGPDLVKPSRSLSLTCTVTGYSITSGYSWHWIRQFPGNKLEWMGYIHYSGSTKYNPSLKSRISITRDTSKNQFFLQLNSVTTEDAATYYCARGSNYGFDYWGQGTTLTVSS
VL: DIELTQSPSSLAVSVGEKVTMSCKSSQSLLYSNDQKNYLAWYQQKPGQSPKLLIYWASIRESGVPDRFTGSGSGTDFTLTISSVKAEDLAVYYCQQYYIYPLTFGAGTKLEIKR
Consider B1, for which, in experiment [1], the binding result is “binds”.

B2: Chimeric mAb ch2448 (antibody, V domains shown)
VH: VQLQESGPDLVKPSRSLSLTCTVTGYSITSGYSWHWIRQFPGNKLEWMGYIHYSGSTKYNPSLKSRISITRDTSKNQFFLQLNSVTTEDAATYYCARGSNYGFDYWGQGTTLTVSS
VL: DIELTQSPSSLAVSVGEKVTMSCKSSQSLLYSNDQKNYLAWYQQKPGQSPKLLIYWASIRESGVPDRFTGSGSGTDFTLTISSVKAEDLAVYYCQQYYIYPLTFGAGTKLEIKR
notes: also called wildtype chimeric mAb ch2448
Regarding B2, the binding result in experiment [2] is reported as “binds”.

B3: Afucosylated ch2448 (antibody, V domains shown)
VH: VQLQESGPDLVKPSRSLSLTCTVTGYSITSGYSWHWIRQFPGNKLEWMGYIHYSGSTKYNPSLKSRISITRDTSKNQFFLQLNSVTTEDAATYYCARGSNYGFDYWGQGTTLTVSS
VL: DIELTQSPSSLAVSVGEKVTMSCKSSQSLLYSNDQKNYLAWYQQKPGQSPKLLIYWASIRESGVPDRFTGSGSGTDFTLTISSVKAEDLAVYYCQQYYIYPLTFGAGTKLEIKR
notes: also called aF-ch2448
As to B3, the binding result in experiment [2] is “binds”.
